Experimental data from patent US7250505 (FRED HUTCHINSON CANCER RESEARCH CENTER, dated 2007).
Changes are numbered by the printed parent chain. Non-standard residues stand in square brackets, D forms with d. No end group written: not given here. pY = N[C@@H](Cc1ccc(OP(=O)(O)O)cc1)C(=O)O

What was measured:
activated Src (Src527F) = target: T1, activated Src (Src527F) (UniProt P00523 1-533); assay: co-expression with Src527F in 293T cells, immunoprecipitation and immunoblot
T1 construct: the old residue (Tyr) is from general knowledge

[1] = target: T2, APP protein (endogenous, full-length) (UniProt P12023 18-770, limits assumed); assay: GST pull-down from P19 cell extracts, Western blot
T2 construct: P19 is a mouse line by general knowledge; also called endogenous, full-length APP; amyloid precursor protein
Description: To test whether mDab1 would bind to the cytoplasmic tail of the APP protein, extracts of P19 cells were incubated with GST fusion proteins and subjected to immunoblot analysis as described above. […] Bound proteins were detected by SDS-PAGE followed by Western blotting.

[2] = target: T3, GST-mDab1 PTB domain fusion protein (mouse, UniProt O75553 29-197 (human entry)); assay: cellulose peptide array, radiolabeled GST-PTB
T3 construct: also called GST-PTB; not shown: glutathione S-transferase encoded by the pGEX-2T vector
T3 sequence: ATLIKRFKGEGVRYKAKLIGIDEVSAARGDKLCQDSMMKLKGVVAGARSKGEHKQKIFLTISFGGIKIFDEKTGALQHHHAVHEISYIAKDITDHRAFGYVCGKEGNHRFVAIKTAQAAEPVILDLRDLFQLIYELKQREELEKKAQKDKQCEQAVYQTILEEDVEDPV

[3] = target: LexA-Src(295R) fusion protein (UniProt P0A7C2 1-202; P00523 1-533); assay: yeast two-hybrid, beta-galactosidase filter assay

B1: mDab198/200F (mutant mDab555 with Phe in place of Tyr 198 and Tyr 200) (other)
chain: MSTETELQVAVKTSAKKDSRKKGQDRSEATLIKRFKGEGVRYKAKLIGIDEVSAARGDKLCQDSMMKLKGVVAGARSKGEHKQKIFLTISFGGIKIFDEKTGALQHHHAVHEISYIAKDITDHRAFGYVCGKEGNHRFVAIKTAQAAEPVILDLRDLFQLIYELKQREELEKKAQKDKQCEQAVYQTILEEDVEDPVFQFIVFEAGHEPIRDPETEENIYQVPTSQKKEGVYDVPKSQPVSAVTQLELFGDMSTPPDITSPPTPATPGDAFLPSSSQTLPGSADVFGSMSFGTAAVPSGYVAMGAVLPSFWGQQPLVQQQIAMGAQPPVAQVIPGAQPIAWGQPGLFPATQQAWPTVAGQFPPAAFMPTQTVMPLAAAMFQGPLTPLATVPGTNDSARSSPQSDKPRQKMGKESFKDFQMVQPPPVPSRKPDQPSLTCTSEAFSSYFNKVGVAQDTDDCDDFDISQLNLTPVTSTTPSTNSPPTPAPRQSSPSKSSASHVSDPTADDIFEEGFESPSKSEEQEAPDGSQASSTSDPFGEPSGEPSGDNISPQDGS
notes: Co-expressed with Src527F in 293T cells
Activated Src (Src527F)
  fold reduction of the in vivo association against mDab555: ~2 fold

B2: GST-mDab1 56E PTB domain fusion protein (other)
chain: T3 sequence with R28E
notes: also called mDab56E-GST; mutant mDab1 PTB; not shown: GST of pGEX-2T and its linker
[1]
  binding result: no binding

B3: TrkA peptide with the motif Ile Ile Glu Asn Pro Gln Tyr, not phosphorylated (peptide)
peptide: IIENPQY
notes: 15 to 17 residue peptide on a cellulose array; only the motif is printed; also called NGF receptor (TrkA) peptide
[2]
  binding result: no binding

B4: TrkA peptide with the motif Ile Ile Glu Asn Pro Gln Tyr, phosphorylated (peptide)
peptide: IIENPQ[pY]
modifications: also: on cellulose array
notes: NPXpY peptide on a cellulose array
[2]
  binding result: no binding

B5: mDab1 clone B3 fused to the VP16 transactivation domain (other)
chain: HHHAVHEISYIAKDITDHRAFGYVCGKEGNHRFVAIKTAQAAEPVILDLRDLFQLIYELKQREELEKKAQKDKQCEQAVYQTILEEDVEDPVYQYIVFEAGHEPIRDPETEENIYQVPTSQKKEGVYDVPKSQPVSAVTQLELFGDMSTPPDITSPPTPATPGDAFLPS
[3]
  binding result: no binding
